The values below come from PMC2120799.

Bounds are passed on as bounds.

In this assay the target is cdk2 (NIH-3T3 cells) (mouse (endogenous in NIH-3T3)) (UniProt P97377). The experiment in a line: co-IP.

On to “p21 (NIH-3T3 cells) (from UniProt P39689 1-159) (natural protein)”, for which the stoichiometry N (mol per mol cdk2) is < 1. Under “p27 (NIH-3T3 cells) (from UniProt P46414 1-197) (natural protein)” stands < 1.
